Assay results published in US20260028417A1 (SICHUAN KELUN BIOTECH BIOPHARMACEUTICAL, published 2026).
Blank lines part the entries; values can stand above or below the binder they belong to.

Columns and labels:
[1] = target: T1, monkey HER3 protein (extracellular sequence with six histidines at the C-terminal) (monkey); experiment: ELISA, coated monkey HER3 protein, chimeric antibody
T1 construct: Made in HEK293 cells; also called Monkey HER3-His
T1 chain: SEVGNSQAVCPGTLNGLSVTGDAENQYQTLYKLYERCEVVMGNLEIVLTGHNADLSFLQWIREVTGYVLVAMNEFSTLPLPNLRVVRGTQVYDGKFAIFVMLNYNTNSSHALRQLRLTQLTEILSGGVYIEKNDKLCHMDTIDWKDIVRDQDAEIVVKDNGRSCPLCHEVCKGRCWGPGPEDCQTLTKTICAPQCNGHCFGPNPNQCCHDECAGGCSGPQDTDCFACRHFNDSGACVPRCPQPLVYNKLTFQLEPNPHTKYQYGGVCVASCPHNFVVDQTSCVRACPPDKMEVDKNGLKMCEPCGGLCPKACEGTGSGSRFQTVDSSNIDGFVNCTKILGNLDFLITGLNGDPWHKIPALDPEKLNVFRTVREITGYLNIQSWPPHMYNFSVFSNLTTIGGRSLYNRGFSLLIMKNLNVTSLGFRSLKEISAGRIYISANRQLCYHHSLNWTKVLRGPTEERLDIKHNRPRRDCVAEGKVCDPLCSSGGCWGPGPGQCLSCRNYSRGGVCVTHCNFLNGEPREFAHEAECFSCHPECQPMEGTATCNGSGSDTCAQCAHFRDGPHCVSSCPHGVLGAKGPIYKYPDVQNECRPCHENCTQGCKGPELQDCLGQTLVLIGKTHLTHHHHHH
Method: (§1) The plate was washed 5 times with PBST (0.2% Tween-20). After the plate was dried, 100 μl of TMB (CoWin Biotech) chromogenic substrate was added to each well, reacted at room temperature for 3-5 minutes; 50 μl of 2N H₂SO₄ was added to each well to stop the chromogenic reaction, and absorbance value at OD450 nm was read with a microplate reader. The raw data were imported into GraphPad Prism 6 software for nonlinear curve fitting, and the EC50 values of each antibody binding to human HER3 and monkey HER3 were calculated.

[2] = target: T2, human HER3 protein (extracellular sequence with six histidines at the C-terminal) (human, UniProt P21860 20-643); experiment: ELISA, coated human HER3 protein, chimeric antibody
T2 construct: extracellular domain; Made in HEK293 cells; also called Human HER3-His
Method: as §1

[3] = target: T3, human HER3 on cells (human, UniProt P21860 20-1342); experiment: cell-based or functional assay
[4] = target: T3, human HER3 on cells; experiment: flow cytometry on T47D cells
Method: (§2) Data processing: the Median PE values were exported, then imported into GraphPad Prism 6 software, and EC50 values were calculated.

[5] = target: T3, human HER3 on cells; experiment: flow cytometry on NCI-H358 cells
Method: as §2

[6] = target: T2, human HER3 protein (extracellular …); experiment: BLI (ForteBio), antibody captured on Protein A sensor, human HER3-His in solution, 1:1 global fit
Method: (§3) The measured results were entered into Data Analysis 11.0 software, by using 1:1 mode, and global fitting; the results were analyzed to obtain the association rate, dissociation rate and affinity constant.

[7] = target: T1, monkey HER3 protein (extracellular …); experiment: BLI (ForteBio), antibody captured on Protein A sensor, monkey HER3-His in solution, 1:1 global fit
Method: as §3

[8] = target: T3, human HER3 on cells; experiment: cell-based or functional assay; remark: listed apart in the source
[9] = target: T3, human HER3 on cells; experiment: competition flow cytometry on adherent cells (cell line not named in paragraph 175); competitor: 22B6D2-hIgG-Bio, final 25 ng/ml; PE streptavidin
Description: Data processing: the Median PE values were exported, and then imported into GraphPad Prism 6 software for nonlinear curve fitting (4-parameter).

[10] = target: T1, monkey HER3 protein (extracellular …); experiment: ELISA, coated monkey HER3-His
Method: (§4) The plate was washed 5 times with PBST (0.2% Tween-20), and dried, then 100 μl of TMB (InnoReagents) chromogenic substrate was added to each well, reacted at room temperature for 3-5 minutes, then 50 μl of 2N H₂SO₄ was added to each well to stop the chromogenic reaction, and the absorbance value at OD450 nm was read with a microplate reader. The raw data were imported into GraphPad Prism 6 software for nonlinear curve fitting, and EC50 values were calculated.

[11] = target: T2, human HER3 protein (extracellular …); experiment: competition ELISA on coated human HER3 protein (1 µg/ml); competitor: biotin-labelled 22B6D2-hIgG (22B6D2-hIgG-Bio, diluted to 3 ng/mL); streptavidin-HRP, OD450
Method: The plate was washed with PBST (0.2% Tween-20) for 3 times, and dried, 100 μl of diluted Peroxidase-conjugated Streptavidin secondary antibody (Proteintech) was added to each well, and incubated at room temperature for 1 hour; the plate was washed 5 times with PBST (0.2% Tween-20), and dried, 100 μl of TMB (InnoReagents) chromogenic substrate was added to each well, reacted at room temperature for 3-5 minutes; 50 μl of 2N H₂SO₄ was added to each well to stop the chromogenic reaction, and OD450 nm absorbance value was read with a microplate reader. The raw data were imported into GraphPad Prism 6 software for nonlinear curve fitting (4-parameter).

[12] = target: T3, human HER3 on cells; experiment: cell-based or functional assay; remark: listed apart in the source
[13] = target: T3, human HER3 on cells; experiment: flow cytometry on NCI-N87 cells
Method: as §2

[14] = target: T3, human HER3 on cells; experiment: cell-based or functional assay; remark: listed apart in the source
[15] = target: T2, human HER3 protein (extracellular …); experiment: ELISA, coated human HER3-His
Method: as §4

B1: 47A3E3 (anti-human HER3 chimeric antibody) (antibody, V domains shown)
VH: EVQLQESGPGLVKPSQTLSLTCAISGDSVSSSQSTWNWIRQSPSRGLEWLGRTFYRSRWYNDYALSMKSRITINPDTSKNQFSLQLNPVTPEDTAVYYCARDTYYYGSGGFDYWGQGSRVTVSS
VL: DIQMTQSPSTLSASVGDRVTITCRASQSLSRWLAWYQQKPEKAPKLLIYKASSLESGVPSRFSGSGSGTEFTLTISTLQPDDFATYYCQQYKNYYSFGQGTKLEIK
EC50 [1]: 0.0101 µg/mL
EC50 [2]: 0.0096 µg/mL

B3: 22B6D2 (anti-human HER3 chimeric antibody) (antibody, V domains shown)
VH: EVHLVESGGGVVQPGRSLRLSCATSGFTFRSYGMHWVRQAPGKGLEWVAVIWYDGSNKYYADSVKGRFTISRDISKNTLYLQMNSLTAEDTAVYYCARYYYDSNGYYDAFDIWGQGTMVTVSS
VL: DIQLTQSPSFLSASVGDRVTITCRASQGISNYLAWYQQKPGKAPKLLIFAASTLQSGVPSRFSGSGSGAEFTLTISSLEPEDFATYYCQQLNSYPITFGQGTRLEIK
notes: detected with anti-Rat IgG
EC50 [1]: 0.0071 µg/mL
EC50 [2]: 0.0054 µg/mL

Next, values leading:

internalization activity, EC50, HPAF-II cells (flow cytometry) [3]: 0.0294 µg/mL
internalization activity, EC50, MDA-MB-453 cells (flow cytometry) [3]: 0.0229 µg/mL
internalization activity, EC50, NCI-358 cells (flow cytometry) [3]: 0.067 µg/mL
internalization activity, EC50, WIDR cells (flow cytometry) [3]: 0.0301 µg/mL
EC50 [4]: 0.0383 µg/mL
EC50 [5]: 0.0857 µg/mL
Kd [6]: 11.1 nM
koff [6]: 0.00397 s⁻¹
kon [6]: 357000 M⁻¹ s⁻¹
Kd [7]: 49.6 nM
koff [7]: 0.00825 s⁻¹
kon [7]: 166000 M⁻¹ s⁻¹
ADCC activity, enhancement against U1-59 [8]: 1.86 fold
IC50 (read off the curve) [9]: ~0.1 µg/mL
EC50 [10]: 0.00363 µg/mL
IC50 (read off the curve) [11]: ~0.4 µg/mL
IC50 of inhibition of ligand (NRG1)-induced AKT phosphorylation in MCF-7 cells [12]: 0.0912 µg/mL
EC50 [13]: 0.0446 µg/mL
ADCC activity, EC50 (Jurkat-NFAT/luciferase-CD16a reporter with CHO-S-hHER3 target cells) [14]: 0.00973 µg/mL
EC50 [15]: 0.00407 µg/mL
B2: 22B6D2-hIgG (anti-human HER3 fully human antibody) (antibody, V domains shown)
VH: EVHLVESGGGVVQPGRSLRLSCATSGFTFRSYGMHWVRQAPGKGLEWVAVIWYDGSNKYYADSVKGRFTISRDISKNTLYLQMNSLTAEDTAVYYCARYYYDSNGYYDAFDIWGQGTMVTVSS
VL: DIQLTQSPSFLSASVGDRVTITCRASQGISNYLAWYQQKPGKAPKLLIFAASTLQSGVPSRFSGSGSGAEFTLTISSLEPEDFATYYCQQLNSYPITFGQGTRLEIKR
notes: Human IgG1/kappa, expressed in CHO-S cells; also called 22B6D2-hIgG-Bio (biotin-labelled)

EC50 [1]: 0.0065 µg/mL
EC50 [2]: 0.0121 µg/mL
B4: 44A4A11 (anti-human HER3 chimeric antibody) (antibody, V domains shown)
VH: EVQLLESGGGLVQPGGSLRLSCAASGFTFSSYAMNWVRQAPGKGLEWVSSISDSGGSTYYADSVKGRFTISRDNSKNTLYLQMNSLRAEDTAVYYCAKDGGISMVRGVIIEEGYFDLWGRGTLVTSPQ
VL: DIQLTQSPSFLSASVGDRVTITCRASQGISSYLAWYQQKPGKAPKLLIYVVSTLQSGVPSRFSGSGSGTEFTLTISSLQPEDFATYYCHQLNSYPLTFGGGTKVEIK
